Legend:
[1] = target: Giardia lamblia virus strain GLV-CAT capsid protein (Giardia lamblia virus (strain GLV-CAT)); assay: cryo-EM structure; single-particle analysis of purified virions plunge-frozen on holey carbon grids; 300-kV Titan Krios; icosahedral symmetry imposed; atomic models of CP-A and CP-B built into the maps
[2] = target: Giardia lamblia virus strain GLV-HP capsid protein (Giardia lamblia virus (strain GLV-HP)); assay: as above

Row | Substance | stoichiometry N (CP dimers (CP-A and CP-B) in the capsid) [1] | stoichiometry N (CP dimers (CP-A and CP-B) in the capsid) [2]
1 | Giardia lamblia virus strain GLV-CAT capsid protein (natural protein) | 60 | –
2 | Giardia lamblia virus strain GLV-HP capsid protein (natural protein) | – | 60

Reference: article PMC11081498
